In US20240209065A1:

Legend:
Assay in all cases: cell-based or functional assay
[1] = target: S protein of RaTG13 on S-pseudotyped VSV (RaTG13 (clade 1b sarbecovirus))
[2] = target: S protein of Pangolin-GD on S-pseudotyped VSV (Pangolin-GD (clade 1b sarbecovirus))
[3] = target: S protein of authentic SARS-CoV-2 G614 virus (SARS-CoV-2) (UniProt P0DTC2)

## DXP-604 IgG (antibody)
[1]
  IC50, S-pseudotyped VSV neutralization assay: 0.01 nM
[2]
  IC50, S-pseudotyped VSV neutralization assay: 0.05 nM
[3]
  IC50, microneutralization assay with authentic virus: 0.3 nM
